Assay: yeast display, Sf9 membrane polyspecificity reagent, FACS + sequencing; frameworks hold sequencing errors
Summary of the method: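 Polyreactivity labels are assigned by the sorting gate from which each nanobody was recovered. The gates were low and high (top ~1%), set on anti-HA fluorescence for expression and streptavidin fluorescence for reagent binding. Before sorting, galactose-induced (36–48 hours) yeast display cells were stained for 1 hour at 4 °C with 10% biotinylated, detergent-solubilized Sf9 membrane reagent.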

Row | Sequence | polyreactivity (PSR sort gate)
1 | QVQLVESGGGFVQAGGSLRLSCAASGSTFYTYTLGWYRQAPGKERELVAAISSSGGDTYYADSVKGRFTISRDNAKNTVYLQMNSLKPEDTAVYYCAALGAFPSLEFDYWGQGTQVTVSS | low polyreactivity
2 | QVQLVESGGGLVQAGGSLRLSCAASGSTFVVYAMGWYRQAPGKERELVAAIDLSVGDTYYADSVKGRFTISRDNAKNTVYLQMNSLKPEDTAVYYCNVAVYYWRWIYGYWGQGTQVTVSS | low polyreactivity
3 | QVQLVESVGGLVQAGGSLRLSCAASGFIFYWYAMGWYRQAPGKERELVAAITRSGGRTYYADSVKGRFTISRDNAKNTVYLQMNSLKPEDTAVYYCNAGYWLSPYKFGYWGQGTQVTVSS | high polyreactivity
4 | QVQLVESGGGLVQAGGSLRLSCAASGRIFLWYTMGWYRQAPGKERELVASITRGGTTNYADSVKGRFTISRDNAKNTVYLQMNSLKPEDTAVYYFNVAYTWCQSTTSWYDIHYYWGQGSQVTVSS | high polyreactivity
5 | QVQVVESGGGLVQAGGSLGLSCAASGFTFGRYARGWYRQAPGKERELVAAISRGGSTYYADSVKGRFTISRDNAMYTDYLQMNSLKTEDTAVYYCNAAGLPTQLYYWGQGTQVTVSS | high polyreactivity
6 | QVQLVESGGGLVQAGGSLRLSCAASGSIFYKYVMGWYRQAPGKERELVAAISRGGGSTYYADSVKGRFTISRDNAKNTVYLQMNSLKPEDTAVYYCNAVGRPRYGHGFDHWGQGTQVTVSS | high polyreactivity
7 | QVQLVESGGGLVQPGGSLRLSCAASGRTFRTNAMGWSRQEPGKERELVAAISTGGGITNYADSVKGRFTISRDNAKNTVYLQMNCLKPEDTAVYYCAARLAYNAIGYYYWGQGTQVTVSS | low polyreactivity
8 | QVQIVESGGGLVQAGGSLRLSCAASGSTFTIYAMGRYRQAPGKERELVAAISSGGSTYYADSVKGRFTISRDNAKNTVYLQMNSLKPEDTAVYYCAARVYLSGYGYNYWGQGTQVTVSS | high polyreactivity
9 | QVQLVESGGGLVQAGGSLRLSCAASGFTFVRYAMGWYRQAPGKEREFVASISARGGNTFYADSVKGRFTISRDNAKNTVYLQMNSLKPEDTAVYYCAKRGPYGTGYGYWGQGTQVTVSS | high polyreactivity
10 | QVQLVESGGGLVQAGGSLRLSCAASGSTFYYYAMGWYRQAPGKERELVAAINSSGGNTYYADSVKGRFTISRDNAKNTVYLQMNSLNPEDTAVYYCATEYYWLQDYDYWGHGTQVTVSS | low polyreactivity
11 | QVQLVESGGGLVQAGGSLRLSCAASGSNFFFNTMGWYRQAPGKERELVAVITSGGSTYYADSVKGRFTISRDNAKNTVYLQMNSLKPEDTAVYYCAARYLPYRRIKYDYWGQGTQVTVSS | low polyreactivity
12 | QVQLVESGGGLVQAGGSLRLSCAASGFIFYRNTMGWSRQAPGKEREFVAAIRWRGGSTYYADSVKGRFTISRDNAKNTVYLQMNSLKPEDTAVYYCAADTRPGYSGFEYWGQGTQVTVSS | high polyreactivity
13 | QVQLVESGGGLVQAGGSLRLSCAASGITFSTYAMGWYRQAPGKERELVAAINWSGGSTRYADSVKGRFTISRDNAKNTVYLQMNSLKPEDTAVYYCAAEVQGQVGEFDYWGQGTQVTVSS | low polyreactivity
14 | QVHLVESGGGLVQAGGSLRLSFAASGSIFYFNAMGWYRQAPGKERELVAAINYSGGSTYYADSVKGRFTISRDNAKNTVYLQRNSLKPEDTAVYYCAAVTYFGWYPYRMEYWGQGTQVTVSS | high polyreactivity
15 | QVQLLESGGGLVQAGGSLRLSCASSGSIFFRNAMVWYRQAPGKEREYVAAITGSSVSTYYADSVKGRFTISRDNAKNTVYLQMNSLKPEDTAVYYCAVRKWIGYNPYDDWGQGTQVTVSS | high polyreactivity
16 | QVQLVESGGGLVQAGGSLRLSCAASGSTFKGNAMGWYRQAPGKERELVAAITFSGGSTYYADSVKGRFTISRDNAKNTVYLQMNSLKPEDTAVYYCAKGEWVYWRPWYEYWGQGTQVTVSS | low polyreactivity
17 | QVQHVESGGGLVQAGGSLRLSCAASGGTFLANAMGWYRQAPGKERELVAAISWRGGSTRYADSVKGRFTISRDNAKNTVYLQMNSLKPEDTAVYYCAARYLYFTGFYYWGQGTQVTVSS | high polyreactivity

Source: the nanobody polyreactivity screen of Harvey et al. (2022)
